B1: glmS ribozyme (parent)
chain: AUAAAAGCGCCAGAACUACAGAAAUGUAGUUGACGAGGAGGAGGUUUAUCGAAUUUUCGGCGGAUGCCUCCAAA

± gives the standard error. This sample holds only a part of the variants without activity. Where only a bound is given, the exact number is not on record here.

What all share (details): with glucosamine-6-phosphate
The variants in data set [1] derive from B1. The experiment in a line: self-cleavage kobs at 160 uM GlcN6P; higher = faster cleavage; RNA array. An outline of the steps: (§1)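 Glucosamine-6-phosphate, from 40 μM to 10 mM in HEPES/KCl/Mg(OAc)2 buffer, was flowed over sequenced MiSeq chips carrying barcoded ribozyme variants transcribed in situ by E. coli RNA polymerase. A hybridised Cy3 probe tracked the variants at 37 °C as tiles were imaged over ~14 h. kobs, kcat and KM were obtained by fitting normalised per-tile medians to exponential decays and then applying weighted Michaelis–Menten fits across concentrations.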

In data set [2] the parent is B1. The experiment in a line: self-cleavage kobs at 640 uM GlcN6P; higher = faster cleavage; RNA array. Summed up: as §1
Data set [3] covers variants of B1. The experiment in a line: self-cleavage kobs at 2500 uM GlcN6P; higher = faster cleavage; RNA array. Summed up: as §1
The variants in data set [4] derive from B1. In words: self-cleavage kobs at 10000 uM GlcN6P; higher = faster cleavage; RNA array. An outline of the steps: as §1

As to C10A C34A G37A U46C C67G, the “self-cleavage kobs at 160 uM GlcN6P” value in data set [1] is under 1e-05 s⁻¹.

As for G43C U54A G60C, the “self-cleavage kobs at 160 uM GlcN6P” value in data set [1] was under 1e-05 s⁻¹. The “self-cleavage kobs at 640 uM GlcN6P” value in data set [2] is under 1e-05 s⁻¹.

Take G7C G29U A33G: the “self-cleavage kobs at 160 uM GlcN6P” value in data set [1] was under 1e-05 s⁻¹. In addition, in data set [2], the “self-cleavage kobs at 640 uM GlcN6P” value is under 1e-05 s⁻¹.

As for A15C U57C G62C, in data set [1], the “self-cleavage kobs at 160 uM GlcN6P” value is under 1e-05 s⁻¹. Moreover, in data set [2], the “self-cleavage kobs at 640 uM GlcN6P” value was under 1e-05 s⁻¹.

With C8A G60A C68A, the “self-cleavage kobs at 160 uM GlcN6P” value in data set [1] is under 1e-05 s⁻¹. For the same variant, the “self-cleavage kobs at 2500 uM GlcN6P” value in data set [3] is under 1e-05 s⁻¹.

For the variant G35C A53G, the “self-cleavage kobs at 160 uM GlcN6P” value in data set [1] was under 1e-05 s⁻¹. Moreover, the “self-cleavage kobs at 640 uM GlcN6P” value in data set [2] was under 1e-05 s⁻¹. Further, the “self-cleavage kobs at 2500 uM GlcN6P” value in data set [3] is under 1e-05 s⁻¹. Further, the “self-cleavage kobs at 10000 uM GlcN6P” value in data set [4] was under 1e-05 s⁻¹.

Take G35C G40A A42U: the “self-cleavage kobs at 160 uM GlcN6P” value in data set [1] was under 1e-05 s⁻¹. Besides, the “self-cleavage kobs at 640 uM GlcN6P” value in data set [2] was under 1e-05 s⁻¹. Besides, the “self-cleavage kobs at 2500 uM GlcN6P” value in data set [3] was under 1e-05 s⁻¹.

As to A15G U47G C68G, the “self-cleavage kobs at 160 uM GlcN6P” value in data set [1] was 0.000236 ± 8.5e-05 s⁻¹. Also, in data set [3], the “self-cleavage kobs at 2500 uM GlcN6P” value worked out at 3e-05 ± 1.3e-05 s⁻¹.

As for G7U A14C G66U, the “self-cleavage kobs at 160 uM GlcN6P” value in data set [1] is under 1e-05 s⁻¹. For the same variant, in data set [3], the “self-cleavage kobs at 2500 uM GlcN6P” value was under 1e-05 s⁻¹.

With C11G A36C U55A, in data set [1], the “self-cleavage kobs at 160 uM GlcN6P” value was under 1e-05 s⁻¹.

Consider G37C U65C, for which, in data set [1], the “self-cleavage kobs at 160 uM GlcN6P” value is under 1e-05 s⁻¹. In data set [2], the “self-cleavage kobs at 640 uM GlcN6P” value was under 1e-05 s⁻¹. Further, the “self-cleavage kobs at 2500 uM GlcN6P” value in data set [3] is under 1e-05 s⁻¹.

Regarding G9A C58A, in data set [1], the “self-cleavage kobs at 160 uM GlcN6P” value is under 1e-05 s⁻¹. Further, the “self-cleavage kobs at 640 uM GlcN6P” value in data set [2] was under 1e-05 s⁻¹. Further, the “self-cleavage kobs at 2500 uM GlcN6P” value in data set [3] is under 1e-05 s⁻¹.

C8A A12C: the “self-cleavage kobs at 160 uM GlcN6P” value in data set [1] is under 1e-05 s⁻¹. Also, in data set [2], the “self-cleavage kobs at 640 uM GlcN6P” value was under 1e-05 s⁻¹. The “self-cleavage kobs at 2500 uM GlcN6P” value in data set [3] was under 1e-05 s⁻¹. In data set [4], the “self-cleavage kobs at 10000 uM GlcN6P” value was under 1e-05 s⁻¹.

Regarding G44U U65G C70G, the “self-cleavage kobs at 160 uM GlcN6P” value in data set [1] was under 1e-05 s⁻¹. Moreover, the “self-cleavage kobs at 2500 uM GlcN6P” value in data set [3] is under 1e-05 s⁻¹.

Turning to G38C C61U C71U, the “self-cleavage kobs at 160 uM GlcN6P” value in data set [1] was under 1e-05 s⁻¹.

On to G7A G35A G51C, for which, in data set [1], the “self-cleavage kobs at 160 uM GlcN6P” value was under 1e-05 s⁻¹. Moreover, in data set [3], the “self-cleavage kobs at 2500 uM GlcN6P” value is under 1e-05 s⁻¹.

Turning to A39C A53U G59U C67U, the “self-cleavage kobs at 160 uM GlcN6P” value in data set [1] is under 1e-05 s⁻¹.

For A36G G60C, the “self-cleavage kobs at 160 uM GlcN6P” value in data set [1] was under 1e-05 s⁻¹. Moreover, in data set [2], the “self-cleavage kobs at 640 uM GlcN6P” value is under 1e-05 s⁻¹. Also, the “self-cleavage kobs at 2500 uM GlcN6P” value in data set [3] was under 1e-05 s⁻¹. Moreover, in data set [4], the “self-cleavage kobs at 10000 uM GlcN6P” value is under 1e-05 s⁻¹.

Consider C10A C34G A36G A39C U65A, for which the “self-cleavage kobs at 160 uM GlcN6P” value in data set [1] was under 1e-05 s⁻¹. Besides, in data set [3], the “self-cleavage kobs at 2500 uM GlcN6P” value was under 1e-05 s⁻¹.

For the variant A36C A52C, the “self-cleavage kobs at 160 uM GlcN6P” value in data set [1] was under 1e-05 s⁻¹. Further, the “self-cleavage kobs at 10000 uM GlcN6P” value in data set [4] was under 1e-05 s⁻¹.

On to C8U A36U G40C U56A, for which the “self-cleavage kobs at 160 uM GlcN6P” value in data set [1] is under 1e-05 s⁻¹. The “self-cleavage kobs at 2500 uM GlcN6P” value in data set [3] is under 1e-05 s⁻¹.

Turning to C8U A14C, in data set [1], the “self-cleavage kobs at 160 uM GlcN6P” value is under 1e-05 s⁻¹. For the same variant, the “self-cleavage kobs at 640 uM GlcN6P” value in data set [2] is under 1e-05 s⁻¹. The “self-cleavage kobs at 2500 uM GlcN6P” value in data set [3] is under 1e-05 s⁻¹. In addition, in data set [4], the “self-cleavage kobs at 10000 uM GlcN6P” value was under 1e-05 s⁻¹.

As to G7A C8A U49G, the “self-cleavage kobs at 160 uM GlcN6P” value in data set [1] is under 1e-05 s⁻¹. Moreover, the “self-cleavage kobs at 2500 uM GlcN6P” value in data set [3] is under 1e-05 s⁻¹. Also, the “self-cleavage kobs at 10000 uM GlcN6P” value in data set [4] was under 1e-05 s⁻¹.

On to G41A A53U U54G, for which, in data set [1], the “self-cleavage kobs at 160 uM GlcN6P” value was determined as 0.000102 ± 3.4e-05 s⁻¹. The “self-cleavage kobs at 640 uM GlcN6P” value in data set [2] turned out to be 0.000241 ± 8.7e-05 s⁻¹. The “self-cleavage kobs at 2500 uM GlcN6P” value in data set [3] was found to be 0.000742 ± 0.0002 s⁻¹. The “self-cleavage kobs at 10000 uM GlcN6P” value in data set [4] was 0.000285 ± 7.8e-05 s⁻¹.

Consider G9C G29A G51U, for which the “self-cleavage kobs at 160 uM GlcN6P” value in data set [1] was under 1e-05 s⁻¹. For the same variant, the “self-cleavage kobs at 640 uM GlcN6P” value in data set [2] was under 1e-05 s⁻¹. Also, in data set [3], the “self-cleavage kobs at 2500 uM GlcN6P” value was under 1e-05 s⁻¹.

The record behind these values is the supplement of paper PMC7125110.
